US20250388666A1 (BRIGHAM AND WOMEN S HOSPITAL, published 2025)

T1: CEACAM6 (Sino Biological) (human, UniProt P40199 35-320)
T1 construct: also called hCEACAM6
T1 sequence (looked up): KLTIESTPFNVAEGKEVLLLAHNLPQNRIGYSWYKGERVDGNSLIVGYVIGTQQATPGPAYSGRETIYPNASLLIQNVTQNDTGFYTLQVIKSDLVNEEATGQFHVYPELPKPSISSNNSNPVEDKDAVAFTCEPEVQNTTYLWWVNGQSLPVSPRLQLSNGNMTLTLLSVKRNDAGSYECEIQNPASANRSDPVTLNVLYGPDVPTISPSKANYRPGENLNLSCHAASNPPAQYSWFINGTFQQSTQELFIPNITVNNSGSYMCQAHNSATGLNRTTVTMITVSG

T2: CEACAM3 (Sino Biological) (human, UniProt P40198 35-155, limits assumed)
T2 construct: also called hCEACAM3
T2 sequence (looked up): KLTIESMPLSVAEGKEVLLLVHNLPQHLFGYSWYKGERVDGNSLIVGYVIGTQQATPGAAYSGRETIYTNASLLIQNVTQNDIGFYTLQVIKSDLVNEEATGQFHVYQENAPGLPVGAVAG

T3: CEACAM1 (Sino Biological) (human, UniProt P13688 35-428, limits assumed)
T3 construct: may be the same as CEACAM1-HIS; also called hCEACAM1; biotinylated soluble CEACAM1
T3 sequence: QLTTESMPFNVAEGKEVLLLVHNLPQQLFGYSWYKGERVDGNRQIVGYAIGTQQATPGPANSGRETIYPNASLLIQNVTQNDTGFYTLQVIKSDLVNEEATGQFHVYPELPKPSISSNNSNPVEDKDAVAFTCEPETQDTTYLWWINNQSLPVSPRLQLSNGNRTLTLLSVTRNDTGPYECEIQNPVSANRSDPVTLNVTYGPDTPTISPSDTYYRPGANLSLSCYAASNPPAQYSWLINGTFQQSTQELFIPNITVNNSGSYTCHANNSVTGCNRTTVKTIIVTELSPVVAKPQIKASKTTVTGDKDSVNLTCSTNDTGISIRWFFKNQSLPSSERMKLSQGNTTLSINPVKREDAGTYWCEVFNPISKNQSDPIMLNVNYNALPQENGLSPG

T4: CEACAM1-HIS (Sino Biologics Inc.) (Homo sapiens (Human), UniProt P13688 35-428)
T4 construct: bought; not shown: His tag
T4 sequence: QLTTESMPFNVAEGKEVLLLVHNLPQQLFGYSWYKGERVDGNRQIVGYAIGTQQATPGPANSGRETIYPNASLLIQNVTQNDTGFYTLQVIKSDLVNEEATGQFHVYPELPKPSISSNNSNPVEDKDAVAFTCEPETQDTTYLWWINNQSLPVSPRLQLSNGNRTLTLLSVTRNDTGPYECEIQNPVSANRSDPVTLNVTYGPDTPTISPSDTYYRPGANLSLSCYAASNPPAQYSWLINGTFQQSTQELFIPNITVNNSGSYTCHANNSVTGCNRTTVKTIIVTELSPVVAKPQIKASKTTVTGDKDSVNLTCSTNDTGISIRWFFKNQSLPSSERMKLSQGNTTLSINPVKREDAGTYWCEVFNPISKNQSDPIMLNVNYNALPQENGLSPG

T5: CEACAM1 on transfected HeLa cells (Homo sapiens (Human), UniProt P13688 35-526)
T5 construct: also called C1
T5 sequence: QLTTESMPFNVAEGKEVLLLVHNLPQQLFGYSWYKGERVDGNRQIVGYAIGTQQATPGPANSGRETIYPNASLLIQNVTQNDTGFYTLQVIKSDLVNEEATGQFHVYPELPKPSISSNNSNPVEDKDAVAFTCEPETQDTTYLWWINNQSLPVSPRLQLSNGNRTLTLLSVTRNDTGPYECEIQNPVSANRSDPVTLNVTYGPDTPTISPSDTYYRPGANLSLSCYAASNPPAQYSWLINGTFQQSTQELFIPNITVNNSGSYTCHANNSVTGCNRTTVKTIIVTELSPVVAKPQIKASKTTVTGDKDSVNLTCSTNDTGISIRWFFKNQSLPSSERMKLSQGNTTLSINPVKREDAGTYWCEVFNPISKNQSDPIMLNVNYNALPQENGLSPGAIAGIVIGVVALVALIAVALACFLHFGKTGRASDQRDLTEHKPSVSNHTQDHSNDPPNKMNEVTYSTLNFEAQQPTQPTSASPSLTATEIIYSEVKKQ

T6: CEACAM6 on transfected HeLa cells (UniProt P40199 35-320, limits assumed)
T6 construct: whole, on cells; also called C6
T6 sequence (looked up): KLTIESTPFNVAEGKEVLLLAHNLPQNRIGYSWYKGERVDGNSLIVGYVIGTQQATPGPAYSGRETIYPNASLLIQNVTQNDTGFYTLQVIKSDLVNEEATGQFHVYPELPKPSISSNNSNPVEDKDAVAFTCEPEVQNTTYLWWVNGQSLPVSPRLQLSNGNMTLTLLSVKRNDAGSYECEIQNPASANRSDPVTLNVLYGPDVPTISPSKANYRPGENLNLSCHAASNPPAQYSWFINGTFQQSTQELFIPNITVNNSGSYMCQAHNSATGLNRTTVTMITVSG

T7: human GST-CEACAM1 (human, UniProt P13688 35-141, limits assumed)
T7 construct: printed both as GST-CEACAM1 and CEACAM1-GST; also called human CEACAM1-GST protein; hCEACAM1-GST; not shown: GST tag
T7 sequence: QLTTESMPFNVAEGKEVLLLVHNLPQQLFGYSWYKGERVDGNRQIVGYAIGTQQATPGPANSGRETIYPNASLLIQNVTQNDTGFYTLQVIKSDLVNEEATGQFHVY


Legend:
[1] = target: T1, CEACAM6 (Sino Biological); assay: binding ELISA on plate-coated CEACAM (0.5 µg/mL); antibody at 1.67, 0.062 and 0.0069 µg/mL; signal as % of parent IgG on CEACAM1 at 1.67 µg/mL on the same plate
[2] = target: T2, CEACAM3 (Sino Biological); assay: as above
[3] = target: T3, CEACAM1 (Sino Biological); assay: SPR multi-cycle, IgG on Protein A
Protocol: Multi-cycle kinetics analysis was performed on the twelve lead antibodies using a Biacore T200 instrument running Biacore T200 Evaluation Software V3.0.1 (Uppsala, Sweden) to establish an accurate affinity for CEACAM1. The purified antibodies were diluted to a concentration of […] in HBS-P+. At the start of each cycle, each antibody was captured on the Protein A surface to give an RL of ˜100 RU. Following capture, the surface was allowed to stabilize. Kinetic data was obtained using a flow rate of […] to minimize any potential mass transfer effects. For the kinetics analysis, CEACAM1 was used. Multiple repeats of the blank ([…]) and a repeat of a single concentration of the analyte were programmed into the kinetic run in order to check the stability of both the surface and analyte over the kinetic cycles. For kinetic analysis, a two-fold dilution range was selected from 200 to 3.125 nM CEACAM1. The association phase of CEACAM1 was monitored for 275 seconds and the dissociation phase was measured for 250 seconds. Regeneration of the Protein A surface was conducted using two injections of 10 mM glycine-HCL pH 1.5 at the end of each cycle.
The signal from the reference channel Fc1 was subtracted from that of Fc2, Fc3 and Fc4 to correct for differences in non-specific binding to a reference surface, and a global Rmax parameter was used in the 1-to-1 binding model. The relative KD was calculated by dividing the KD of the RSB02 Parent by that of the humanized and affinity matured variants on the same chip.

[4] = target: T3, CEACAM1 (Sino Biological); assay: SPR single-cycle
Outline: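 Humanized affinity-matured IgGs from crude supernatants captured on Protein A to ~100 RU, with CEACAM1 analyte injected at 25–100 nM (three-point, two-fold) in HBS-P+ without regeneration. 200 s association per injection, 300 s single dissociation; reference-channel and blank subtracted.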

[5] = target: T4, CEACAM1-HIS (Sino Biologics Inc.); assay: SPR single-cycle, IgG on Protein A
Protocol: As an alternative approach to assess the binding of the antibody combinations and the control antibodies to CEACAM1, a kinetic analysis was performed on a Biacore T200 running Biacore T200 Evaluation Software V2.0.1. All experiments were run at 25° C. with HBS-P+ running buffer (pH 7.4).
In order to assess the binding of all Composite Human Antibody™ variants, single cycle kinetic analysis was performed on the supernatants of all the transiently transfected HEK EBNA cells. Purified chimeric antibody and purified chimeric antibody spiked into HEK EBNA media were used as positive controls. Supernatants were diluted in HBS-P+ to a concentration of 1 μg/mL (as determined by an IgG quantitation ELISA). At the start of each cycle, antibodies were loaded onto Fc2, Fc3 and Fc4 of a Protein A chip and captured at a flow rate of 8 μL/min to give an RU of ˜100. The surface was then allowed to stabilize. Single cycle kinetic data was obtained at a flow rate of […] to minimize any potential mass transfer effects. Multiple repeats of the chimeric antibody were performed to check the stability of the surface and analyte over the kinetic cycles. The signal from the reference channel Fc1 (no antibody) was subtracted from that of Fc2, Fc3 and Fc4 to correct for differences in non-specific binding to a reference surface. A 5 point 2-fold dilution range from 3.125 to 50 nM CEACAM1 without regeneration between each concentration was used. The association phase for the 5 injections of increasing concentrations of CEACAM1 was monitored for 150 seconds and a single dissociation phase was measured for 150 seconds following the last injection of CEACAM1. Regeneration of the Protein A was conducted using 2 injections of 10 mM glycine-HCL pH 1.5 followed by a stabilization period of 500 seconds.
In the raw sensorgrams for the single cycle kinetics, the signal from each antibody blank run (no CEACAM1) was subtracted to correct for differences in surface stability.

[6] = target: T5, CEACAM1 on transfected HeLa cells; assay: flow cytometry, transfected HeLa
Protocol: (§1) Binding selectivity of the selected antibody variants was assessed by flow cytometry using HeLa cells transfected with vectors expressing CEACAM1, CEACAM5, and CEACAM6, respectively. The resulting cells were used for flow cytometry experiments and were cultured at 37° C., 5.0% CO₂ in Dulbecco's modified Eagle's medium supplemented with 10% fetal bovine serum, penicillin (100 U/ml) and dihydrostreptomycin ([…]). Cell lines were stained with the indicated antibodies followed by fluorochrome-conjugated monoclonal antibody specific for the indicated antibody isotypes such as human IgG4 or mouse IgG1 together with viable dye (DAPI). Data were acquired with a Cytoflex flow cytometer ([…]) and analyzed with FlowJo software (TreeStar, V7.6.5 for Windows).

[7] = target: T6, CEACAM6 on transfected HeLa cells; assay: flow cytometry, transfected HeLa
Protocol: as §1

human GST-CEACAM1 = target: T7, human GST-CEACAM1; assay: competition ELISA vs murine parent antibody
Protocol: The binding of the purified chimeric antibody to human CEACAM1 was assessed in a competition ELISA assay. Nunc Immuno MaxiSorp 96 well flat bottom microtitre plates were pre-coated with 1 μg/ml human GST-CEACAM1 in 1×PBS, overnight at 4° C. The following day the plates were blocked for 1 hour at room temperature with 2% BSA/PBS before washing 2× with PBS/0.05% Tween 20 pH 7.4.
The binding of the purified antibodies to human CEACAM1 were assessed in a competition ELISA assay as described above. The ability of each variant to compete against the murine parental antibody for binding to the GST-CEACAM1 was compared to that of the chimeric antibody (VH0/Vκ0), which was included on each plate.

binding result [1]	binding result [2]	Kd [3] [nM]	koff [3] [s⁻¹]	kon [3] [M⁻¹ s⁻¹]	relative KD to Parent [3] [ratio]	Kd [4] [nM]	fold better than Parent (KD) [4] [fold]	Kd [5] [nM]	relative KD to chimeric parental antibody [5] [ratio]	relative fluorescence intensity [6]	relative fluorescence intensity [7]	average relative IC50 (normalized to chimeric antibody) (human GST-CEACAM1) [ratio]	Binder
no binding (tested: 1.67 µg/mL)	no binding (tested: 1.67 µg/mL)	25.8	0.00795	308000	3.31	67	2.36	–	–	–	–	–	He17/L16 (antibody, IgG4, V domains shown, IgG4 S241P, kappa; also called 17 / 16) VH: EVQLLESGGGLVQPGGSLRLSCAASGFSFSDYYLYWVRQAPGKGLEWVATISVGGGQTSYADSVKGRFTISRDNSKNTLYLQMNSLRAEDTAMYYCTRARTYGPAWFAYWGQGTLVTVSS VL: DIVMTQSPDSLAVSLGERATINCKSSQSLLNSANQKNYLAWYQQKPGQPPKLLIYFASTRESGVPDRFSGSGSGTDFTLTISSLQAEDVAVYYCQSHYPYPFTFGGGTKVEIK
–	–	–	–	–	–	–	–	143	3.3	81.1	1.19	4.4	VH1/Vκ4 (antibody, IgG4, V domains shown, IgG4 (S241P), kappa; also called VH1/VK4) VH: EVQLLESGGGLVQPGGSLRLSCAASGFSFSDYYLYWVRQAPGKGLEWVATISVGGGNTSYPDSVKGRFTISRDNSKNTLYLQMNSLRAEDTAMYYCTRGLYYGPAWFAYWGQGTLVTVSS VL: not shown
